The assay addresses T1, human ILT7 expressed on transfected cells (human, UniProt P59901 24-499).
T1 construct: whole, on cells; also called LILRA4; LIRA4
The experiment in a line: FMAT cell binding, CHO cells expressing human ILT7. An excerpt: This homogeneous assay assessed the binding of crude scFv supernatant samples or purified IgG to Chinese Hamster Ovary (CHO) cells expressing either human or cynomolgus ILT7 in a 384-well (Costar 3655) format. ScFv or Ab binding to cells was detected using a mouse anti-His/goat anti-mouse Alexafluor®-647 labelled antibody (Molecular Probes A21236) mix, or goat anti-human Alexafluor®-647 labelled antibody (Molecular Probes A21445) respectively. Plates were read on the Applied Biosystems Cellular Detection system 8200 reader. The Helium neon excitation laser was focused within 100 μm depth of the bottom of the well, scanning an area 1 mm². The cells settled at the bottom of the well, and upon laser excitation at 633 nm, those beads with fluorophore bound (where the local concentration of fluorophore is relatively high compared to unbound fluorophore) emitted a signal at 650-685 nm that was measured using photomultiplier tube-1 (PMT1). […] The presence of scFv or IgG samples binding to the cells at the bottom of the well caused an increase in Alexafluor-labeled detection antibody within the excitation depth. This was measured as an increase in fluorescence.
Species cross-reactivity of anti-ILT7 antibodies was determined using FMAT binding assay. The detailed assay method is provided in the Materials and Methods section. […]

T1 sequence (P59901 24-499): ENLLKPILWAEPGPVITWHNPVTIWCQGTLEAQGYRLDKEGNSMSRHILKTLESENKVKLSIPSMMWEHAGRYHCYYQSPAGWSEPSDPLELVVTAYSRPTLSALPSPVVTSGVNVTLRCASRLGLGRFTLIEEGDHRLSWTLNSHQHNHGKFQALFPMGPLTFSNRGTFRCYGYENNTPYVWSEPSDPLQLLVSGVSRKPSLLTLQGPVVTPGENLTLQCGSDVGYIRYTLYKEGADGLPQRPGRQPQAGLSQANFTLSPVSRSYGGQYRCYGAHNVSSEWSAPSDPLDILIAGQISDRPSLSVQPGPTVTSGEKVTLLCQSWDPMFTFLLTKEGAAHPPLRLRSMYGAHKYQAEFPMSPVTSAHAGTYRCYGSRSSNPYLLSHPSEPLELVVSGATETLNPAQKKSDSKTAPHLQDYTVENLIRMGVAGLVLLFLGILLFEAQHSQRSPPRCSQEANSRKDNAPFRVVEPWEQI

B1: ILT70052 (antibody, V domains shown)
VH: EVQLVESGGGLVKPGGSLRLSCEASGFTFTDYYMNWIRQAPGKGLEWISYISPGGTTVYYADSVKGRFTISRDNAKNSLYLQMNSLRVEDTAVYYCARDISGYGDWFDPWGKGTLVTVSS
VL: QSVVTQPPSASGTPGQRVTISCSGSSSNIGSNTVNWYQLLPATAPRILIYNNNQRPSGVPDRFAGSKSGTSASLAISGLQSEDEADYYCGAWDDSLNSPVFGGGTKLTVL
As for B1, the binding result is reported as “binds”.

B2: ILT70100 (antibody, V domains shown)
VH: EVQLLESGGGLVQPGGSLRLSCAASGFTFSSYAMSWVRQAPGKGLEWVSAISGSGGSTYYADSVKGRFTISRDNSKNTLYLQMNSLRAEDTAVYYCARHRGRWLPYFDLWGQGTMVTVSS
VL: DIQLTQSPSSLSASVGERVTITCQASQDIRSYLNWYQQKPGKAPKLLIYDVSNLETGVPSRFSGSGSGTEYTFSISSLQPEDFATYYCQQYDKAPLTFGGGTKVEIK
With B2, the binding result is on record as “binds”.

Values taken from patent publication US20230250167A1 (published 2023).
